The values that follow come from patent publication US20070110757A1.

This assay deals with RSV F protein on respiratory syncytial virus (RSV-Long strain) (respiratory syncytial virus (Long strain)) (UniProt P12568). The experiment in a line: cell-based or functional assay.
Sequence of RSV F protein on respiratory syncytial virus (RSV-Long strain) (respiratory syncytial virus (Long strain)) (P12568 26-574): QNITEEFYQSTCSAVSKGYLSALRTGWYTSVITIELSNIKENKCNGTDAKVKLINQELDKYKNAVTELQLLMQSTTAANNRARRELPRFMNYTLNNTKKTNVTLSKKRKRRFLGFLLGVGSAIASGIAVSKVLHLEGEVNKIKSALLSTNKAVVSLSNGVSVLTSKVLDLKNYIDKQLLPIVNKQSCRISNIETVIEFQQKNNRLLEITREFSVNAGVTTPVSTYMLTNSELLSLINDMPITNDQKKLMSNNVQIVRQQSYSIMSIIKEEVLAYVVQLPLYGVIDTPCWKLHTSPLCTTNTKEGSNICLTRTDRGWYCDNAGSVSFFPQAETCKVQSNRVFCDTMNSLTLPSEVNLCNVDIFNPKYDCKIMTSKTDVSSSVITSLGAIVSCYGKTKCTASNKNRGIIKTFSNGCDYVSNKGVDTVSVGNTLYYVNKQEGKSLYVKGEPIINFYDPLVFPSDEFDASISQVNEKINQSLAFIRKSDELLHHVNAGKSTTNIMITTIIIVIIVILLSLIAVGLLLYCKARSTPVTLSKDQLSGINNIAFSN

B1: A13c4 Fab fragment (Fab, V domains shown)
VH: QVTLRESGPALVKPTQTLTLTCTFSGFSLSTAGMSVGWIRQPPGKALEWLADIWWDGKKSYNPSLKDRLTISKDTSKNQVVLKVTNMDPADTATYYCARDMIFNFYFDVWGQGTTVTVSS
VL: DIQMTQSPSTLSASVGDRVTITCSLSSRVGYMHWYQQKPGKAPKLLIYDTMYQSSGVPSRFSGSGSGTEFTLTISSLQPDDFATYYCFQGSGYPFTFGGGTKVEIK
B1 registered a Fold Difference (Control IC50) of 21 fold; a Fold Difference (Curve IC50) of 17 fold; a Mean IC50 (Control), RSV microneutralization of 0.0258 µg/mL; a Mean IC50 (Curve), RSV microneutralization of 0.0264 µg/mL.

B2: A4B4 Fab fragment (Fab, V domains shown)
VH: QVTLRESGPALVKPTQTLTLTCTFSGFSLSTAGMSVGWIRQPPGKALEWLADIWWDDKKHYNPSLKDRLTISKDTSKNQVVLKVTNMDPADTATYYCARDMIFNFYFDVWGQGTTVTVSS
VL: DIQMTQSPSTLSASVGDRVTITCSASSRVGYMHWYQQKPGKAPKLLIYDTFFLDSGVPSRFSGSGSGTEFTLTISSLQPDDFATYYCFQGSGYPFTFGGGTKVEIK
Turning to B2, the Fold Difference (Control IC50) came out at 13 fold; the Fold Difference (Curve IC50) was 11 fold; the Mean IC50 (Control), RSV microneutralization worked out at 0.0411 µg/mL; the Mean IC50 (Curve), RSV microneutralization stood at 0.0414 µg/mL.

B3: A13a11 Fab fragment (Fab, V domains shown)
VH: QVTLRESGPALVKPTQTLTLTCTFSGFSLSTAGMSVGWIRQPPGKALEWLADIWWDDKKHYNPSLKDRLTISKDTSKNQVVLKVTNMDPADTATYYCARDMIFNWYFDVWGQGTTVTVSS
VL: DIQMTQSPSTLSASVGDRVTITCSPSSRVGYMHWYQQKPGKAPKLLIYDTYRHSSGVPSRFSGSGSGTEFTLTISSLQPDDFATYYCFQGSGYPFTFGGGTKVEIK
On to B3, for which the Fold Difference (Control IC50) was 5 fold; the Fold Difference (Curve IC50) is 4 fold; the Mean IC50 (Control), RSV microneutralization came to 0.102 µg/mL; the Mean IC50 (Curve), RSV microneutralization worked out at 0.12 µg/mL.

B4: A1h5 Fab fragment (Fab, V domains shown)
VH: QVTLRESGPALVKPTQTLTLTCTFSGFSLSTAGMSVGWIRQPPGKALEWLADIWWDGKKHYNPSLKDRLTISKDTSKNQVVLKVTNMDPADTATYYCARDMIFNWYFDVWGQGTTVTVSS
VL: DIQMTQSPSTLSASVGDRVTITCSLSSSVGYMHWYQQKPGKAPKLLIYDTFFHRSGVPSRFSGSGSGTEFTLTISSLQPDDFATYYCFQGSGYPFTFGGGTKVEIK
The molecule B4 came in with a Fold Difference (Control IC50) of 3 fold; a Fold Difference (Curve IC50) of 2 fold; a Mean IC50 (Control), RSV microneutralization of 0.176 µg/mL; a Mean IC50 (Curve), RSV microneutralization of 0.194 µg/mL.
